# Laboratory results published in publication PMC9389836.
# What was measured:
# Test in all cases: SEC
# [1] = target: SARS-CoV-2 Nsp15 A93S (SARS-CoV-2)
# [2] = target: SARS-CoV-2 Nsp15 D133Y (SARS-CoV-2)
# [3] = target: SARS-CoV-2 Nsp15 G18E (SARS-CoV-2)
# [4] = target: SARS-CoV-2 Nsp15 G18R (SARS-CoV-2)
# [5] = target: SARS-CoV-2 Nsp15 H235Y (SARS-CoV-2)
# [6] = target: SARS-CoV-2 Nsp15 K13N (SARS-CoV-2)
# [7] = target: SARS-CoV-2 Nsp15 K13R (SARS-CoV-2)
# [8] = target: SARS-CoV-2 Nsp15 K290N (SARS-CoV-2)
# [9] = target: SARS-CoV-2 Nsp15 L163F (SARS-CoV-2)
# [10] = target: SARS-CoV-2 Nsp15 P206S (SARS-CoV-2)
# [11] = target: SARS-CoV-2 Nsp15 R207S (SARS-CoV-2)
# [12] = target: SARS-CoV-2 Nsp15 T34I (SARS-CoV-2)
# [13] = target: SARS-CoV-2 Nsp15 T113I (SARS-CoV-2)
# [14] = target: SARS-CoV-2 Nsp15 T115A (SARS-CoV-2)
# [15] = target: SARS-CoV-2 Nsp15 V128F (SARS-CoV-2)
# [16] = target: SARS-CoV-2 Nsp15 V321M (SARS-CoV-2)
# [17] = target: SARS-CoV-2 Nsp15 W333C (SARS-CoV-2)
substance,measurement,setting,value
SARS-CoV-2 Nsp15 A93S (enzyme),hexamer/monomer ratio,[1],0.49
SARS-CoV-2 Nsp15 D133Y (enzyme),hexamer/monomer ratio,[2],0.48
SARS-CoV-2 Nsp15 G18E (enzyme),hexamer/monomer ratio,[3],0.56
SARS-CoV-2 Nsp15 G18R (enzyme),hexamer/monomer ratio,[4],0.88
SARS-CoV-2 Nsp15 H235Y (enzyme),hexamer/monomer ratio,[5],1.61
SARS-CoV-2 Nsp15 K13N (enzyme),hexamer/monomer ratio,[6],0.63
SARS-CoV-2 Nsp15 K13R (enzyme),hexamer/monomer ratio,[7],1.18
SARS-CoV-2 Nsp15 K290N (enzyme),hexamer/monomer ratio,[8],2.12
SARS-CoV-2 Nsp15 L163F (enzyme),hexamer/monomer ratio,[9],0.23
SARS-CoV-2 Nsp15 P206S (enzyme),hexamer/monomer ratio,[10],2.49
SARS-CoV-2 Nsp15 R207S (enzyme),hexamer/monomer ratio,[11],0.14
SARS-CoV-2 Nsp15 T34I (enzyme),hexamer/monomer ratio,[12],1.01
SARS-CoV-2 Nsp15 T113I (enzyme),hexamer/monomer ratio,[13],1.79
SARS-CoV-2 Nsp15 T115A (enzyme),hexamer/monomer ratio,[14],0.55
SARS-CoV-2 Nsp15 V128F (enzyme),hexamer/monomer ratio,[15],0.5
SARS-CoV-2 Nsp15 V321M (enzyme),hexamer/monomer ratio,[16],0.65
SARS-CoV-2 Nsp15 W333C (enzyme),hexamer/monomer ratio,[17],0.77
